From patent publication US10196447B2, “Anti-vascular endothelial growth factor receptor 2 (VEGFR2) antibody and methods of use thereof for detecting VEGFR2 and for inhibiting tumor growth, tumor angiogenesis and/or inducing cancer cell cytotoxicity” (Academia Sinica, priority 2015, dated 2019) come the findings set out here.

One data set deals with PC-3 xenografts. Put plainly: PC-3 human prostate cancer xenograft model. The class given is in vivo, NOD/SCID mice. How it is done:
Procedures involving animals and their care were conducted according to the guidelines of the Academia Sinica Institutional Animal Care and Utilization Committee in compliance with national and international laws and policies. Non-obese diabetic-severe combined immunodeficiency (NOD/SCID) mice were purchased from the National Laboratory Animal Center (Taiwan). The human prostate cancer xenograft tumor model was developed by subcutaneously injecting 2×10^6 PC-3 cells into the dorsal flank of a six-week old male mouse. Animals were monitored daily for general health, and body weights were measured twice weekly. Tumor size was measured with slide calipers and calculated as length×width^2×0.52. […] An antibody dose of 20 mg/kg was injected twice a week for four weeks. For combination therapy, docetaxel (ScinoPharm Taiwan) was also intravenously administered at a dose of 5 mg/kg once a week for three weeks. At the end of the experiment, tumor tissue and visceral organs were removed and fixed for histological analysis.
For tumor blood vessel studies, samples were fixed in OCT. Frozen blocks were cut into 50 μm sections, and frozen tumor tissue sections were fixed with 1% paraformaldehyde, permeabilized with 0.1% TRITON™-X 100, blocked with normal horse serum (Vector), and then incubated for 1 hour at room temperature (RT) with a 1:100 dilution of the primary antibody (rat anti-mouse CD31 (PECAM-1); BD Bioscience). Subsequently, the tissue sections were incubated with Alexa 549-conjugated goat anti-rat antibody (Invitrogen) at room temperature for 1 hour. Nuclei were stained with DAPI, and sections were then mounted with fluorescent mounting solution. Immunofluorescent images were acquired using a Zeiss Axiovert 200M microscope. Positive areas of CD31 endothelial cells were quantified by pixel area counting and normalized with DAPI staining using ImageJ software under low power magnification.
The frozen tumor tissue sections were fixed with 1% paratbrmaldehyde and permeabilized with 0.1% TRITON™-X 100, before being incubated with terminal deoxynucleotidyltransferase-mediated dUTP nick end labeling reaction mixture (Roche Diagnostics) at 37° C. for 1 hour. After washing three times with PBS, the slides were incubated with FITC-anti-DIG antibody (1:2000) and DAPI (1:500). Slides were mounted with mounting solution and visualized under a fluorescent microscope. Slides were independently examined by three individuals. Areas with TUNEL-positive cells were quantified by pixel area counting, and normalized to DAPI staining using ImageJ software.

A further data set deals with VEGFR2 signaling pathway. In words: Western blot of VEGF-A-induced phosphorylation in HUVECs. As to conditions: scFv. The class given is cell-based, human. The source says:
Western blots were pertbrmed using standard protocols, as previously described. The primary antibodies were purchased from Cell Signaling Technology and used at a 1,000-fold dilution for protein detection; the antibodies used are as follows: anti-VEGFR2 (clone 55B11), anti-phospho-VEGFR2 (Tyr1175; clone 19A10), anti-FAK, anti-phospho-FAK (Tyr397; cloneD20B1), anti-p42/44 MAPK, anti-phospho-p42/44 MAPK (Thr202/Tyr204; cloneD13.14.4E), anti-Akt, and anti-phospho-Akt (Ser473).

The next data set concerns the target T1, VEGFR2 (Homo sapiens, UniProt P35968).
T1 construct: purchased R&D Systems
Put plainly: Competitive VEGF binding assay (ELISA): VEGF-A binding to immobilized VEGFR2. The note with it: scFv; for IC50: 3 nM human VEGF-A, immobilized VEGFR2-Fc, read-out: half-maximal inhibitory concentration (IC50) of the interaction of VEGF-A with VEGFR2; for competitive ability against VEGF-A binding to VEGFR2: plate-based competition binding assay. On the procedure:
Various concentrations of anti-VEGFR2 scFvs were mixed with 3 nM human VEGF-A (Peprotech), and added to 96-well plates coated with 1 μg/ml of VEGFR2-Fc and pre-blocked in 1% BSA. After incubation for 1 hr at RT and washes with PBST, the bound VEGF molecules were detected using anti-VEGF mAb (GeneTex) and HRP-labeled goat anti-mouse IgG. The reaction was developed with a mixture of OPD and H2O2, and subsequently terminated with 3 N HCl. The absorbance was determined using a microplate reader at 490 nm.
To determine whether the anti-VEGFR2 scFvs can block VEGF-A binding to VEGFR2, we performed a plate-based competition binding assay in which increasing concentrations of scFvs competed with VEGF-A for binding to the immobilized VEGFR2.
We analyzed the affinity of both human antibodies to VEGFR2 using a BIACORE T100™. […] We performed solid-phase competitive assays to quantitatively evaluate the disruption of VEGF-A/VEGFR2 binding by individual antibodies.

The next data set deals with murine VEGFR2 protein (Mus musculus, UniProt P35918, DEL223-227). In words: Cross-reactivity with murine VEGFR2. The format is binding.
Chain of murine VEGFR2 protein (P35918 with tags, fused parts or gaps DEL223-227): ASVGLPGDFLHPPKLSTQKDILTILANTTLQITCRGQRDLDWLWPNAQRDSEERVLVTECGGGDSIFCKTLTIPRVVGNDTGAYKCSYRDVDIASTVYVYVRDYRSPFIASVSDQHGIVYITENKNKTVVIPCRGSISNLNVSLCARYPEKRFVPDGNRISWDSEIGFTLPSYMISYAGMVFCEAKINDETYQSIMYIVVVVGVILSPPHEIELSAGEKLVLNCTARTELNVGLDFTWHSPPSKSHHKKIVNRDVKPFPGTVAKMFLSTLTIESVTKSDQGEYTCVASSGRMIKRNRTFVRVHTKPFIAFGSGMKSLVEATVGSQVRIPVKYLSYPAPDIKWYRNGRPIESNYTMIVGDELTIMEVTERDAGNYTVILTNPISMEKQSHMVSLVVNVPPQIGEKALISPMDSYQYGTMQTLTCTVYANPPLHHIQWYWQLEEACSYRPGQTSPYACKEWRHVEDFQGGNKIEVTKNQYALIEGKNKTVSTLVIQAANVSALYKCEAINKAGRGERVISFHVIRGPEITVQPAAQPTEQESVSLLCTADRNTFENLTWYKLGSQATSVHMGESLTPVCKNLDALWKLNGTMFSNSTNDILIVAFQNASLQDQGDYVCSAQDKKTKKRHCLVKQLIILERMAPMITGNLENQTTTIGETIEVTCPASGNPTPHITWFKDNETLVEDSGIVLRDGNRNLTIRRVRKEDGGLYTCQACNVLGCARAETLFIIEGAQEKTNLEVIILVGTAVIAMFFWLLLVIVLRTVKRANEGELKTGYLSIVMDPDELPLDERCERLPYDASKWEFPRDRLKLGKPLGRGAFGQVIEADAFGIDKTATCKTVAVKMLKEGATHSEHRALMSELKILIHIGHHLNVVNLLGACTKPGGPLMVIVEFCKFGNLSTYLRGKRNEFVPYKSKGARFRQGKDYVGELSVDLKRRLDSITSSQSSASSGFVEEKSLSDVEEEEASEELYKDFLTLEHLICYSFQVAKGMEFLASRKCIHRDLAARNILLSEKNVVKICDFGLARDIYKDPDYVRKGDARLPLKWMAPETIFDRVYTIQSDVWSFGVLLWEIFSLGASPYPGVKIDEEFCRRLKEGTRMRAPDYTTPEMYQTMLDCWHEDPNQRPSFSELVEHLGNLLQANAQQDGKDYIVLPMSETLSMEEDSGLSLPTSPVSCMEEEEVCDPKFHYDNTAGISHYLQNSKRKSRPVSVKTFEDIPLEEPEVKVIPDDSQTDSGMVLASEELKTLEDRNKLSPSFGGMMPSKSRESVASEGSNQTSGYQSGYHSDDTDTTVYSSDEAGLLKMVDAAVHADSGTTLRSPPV
The next data set concerns the target T2, VEGFR2-Fc (Homo sapiens, UniProt P35968).
T2 construct: purchased R&D Systems
In words: Screening of anti-VEGFR2 phage clones by ELISA. As to conditions: 1×10^9 cfu phage titer. The format is binding. On the procedure: (§1) The selected phages were further examined by ELISA screening. The 96-well plates were coated with 1 μg/ml of VEGFR2-Fc, Met-Fc (R&D), or BSA (Sigma) protein in 0.1 M sodium bicarbonate overnight at 4° C. After blocking with 1% BSA in PBS (w/v) for 2 hr at room temperature, 70-randomly selected phage clones were added to the plates at a 1:2 dilution in 1% BSA, and incubated for 1 hr at room temperature. Following washes with PBST, the plates were incubated with a 1:2000 dilution of horseradish peroxidase (HRP)-conjugated mouse anti-M13 phage antibody (GE) for 1 hr. After washing with PBST, the colorimetric reaction was developed with the peroxidase substrate ortho-phenylenediamine (OPD; Sigma) plus H2O2 for 15 min, and then terminated by the addition of 3 N HCl. The absorbance at 490 nm was determined using a microplate reader (SpectraMax, Molecular Devices). Plasmid DNA of positive clones were isolated and sequenced using the pCANTAB5 sequencing primer set.

The next data set has as its system Met-Fc. Put plainly: Phage clone ELISA on control protein. The class given is binding. On the procedure:
as §1

T2 sequence (P35968 with tags, fused parts or gaps limits assumed): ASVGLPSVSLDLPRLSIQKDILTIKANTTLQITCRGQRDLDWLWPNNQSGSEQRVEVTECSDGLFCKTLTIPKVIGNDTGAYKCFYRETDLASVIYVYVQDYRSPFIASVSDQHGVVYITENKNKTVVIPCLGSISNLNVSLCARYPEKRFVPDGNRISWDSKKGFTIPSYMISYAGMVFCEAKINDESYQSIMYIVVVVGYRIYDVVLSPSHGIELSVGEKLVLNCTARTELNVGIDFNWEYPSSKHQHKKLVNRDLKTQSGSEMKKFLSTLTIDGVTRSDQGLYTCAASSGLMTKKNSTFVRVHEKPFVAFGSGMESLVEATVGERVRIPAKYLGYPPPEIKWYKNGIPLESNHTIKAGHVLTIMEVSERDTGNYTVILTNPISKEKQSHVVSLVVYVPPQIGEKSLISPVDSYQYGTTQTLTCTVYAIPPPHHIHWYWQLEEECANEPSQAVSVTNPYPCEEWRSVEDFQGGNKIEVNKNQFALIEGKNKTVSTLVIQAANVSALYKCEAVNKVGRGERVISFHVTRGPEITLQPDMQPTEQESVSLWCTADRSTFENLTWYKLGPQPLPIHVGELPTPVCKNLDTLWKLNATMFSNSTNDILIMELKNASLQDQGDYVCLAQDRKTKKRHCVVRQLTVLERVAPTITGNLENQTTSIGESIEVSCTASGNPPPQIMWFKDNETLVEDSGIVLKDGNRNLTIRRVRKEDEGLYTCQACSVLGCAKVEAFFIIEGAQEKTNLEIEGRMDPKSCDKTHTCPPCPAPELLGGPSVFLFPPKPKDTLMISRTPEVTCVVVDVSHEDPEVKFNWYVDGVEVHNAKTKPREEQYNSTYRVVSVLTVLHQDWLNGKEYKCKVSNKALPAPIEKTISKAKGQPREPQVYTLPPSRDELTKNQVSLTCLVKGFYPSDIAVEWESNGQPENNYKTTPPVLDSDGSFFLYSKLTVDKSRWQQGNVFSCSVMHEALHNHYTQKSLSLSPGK
T1 sequence (P35968 with tags, fused parts or gaps limits assumed): as above

Consider `CC(=O)O[C@@]12CO[C@@H]1C[C@H](O)[C@@]1(C)C(=O)[C@H](O)C3=C(C)[C@@H](OC(=O)[C@H](O)[C@@H](NC(=O)OC(C)(C)C)c4ccccc4)C[C@@](O)([C@@H](OC(=O)c4ccccc4)[C@H]21)C3(C)C` [docetaxel, reference compound], for which the tumor growth reduction with PC-3 xenografts (by day 38, antibody 20 mg/kg i.v. twice a week, docetaxel 5 mg/kg i.v. once a week) is reported as 70%. In addition, the “loss of body weight” value in the data set on PC-3 xenografts (treatment period) is recorded as “about 20%”.

B1: R2S12: soluble anti-VEGFR2 scFv protein from phage clone R2PC12; VH SEQ ID NO: 76, VL SEQ ID NO: 77 (antibody, V domains shown)
VH: QVNLRESGGGLVKPGGSLRLSCAASGFTFGSYTMNWVRQAPGKGLEWVASITSGSSYIFYTDSVKGRFTISRDNSRSSLFLQMNSLRAEDTAIYYCARGSASAFDIWGQGTMVTVSS
VL: DIQMTQSPSSLSASVGDRVTITCKASDDIINYLNWYQQKPGEAPKLLIYDASILETGVPSRFSGSGSGTDFTFTISSLQPEDIATYYCQQYDILPLTFGGGTKLEIK
modifications: scFv linker; VH region of R2S12 or R2S12-AF; VL region of R2S12
Turning to B1, in the data set on VEGFR2 signaling pathway, the “tyrosine phosphorylation of VEGFR2 by VEGF-A” value is given as “strongest inhibition activity”. Moreover, in the data set with VEGFR2, the IC50 was determined as 3.26 nM. In addition, in the data set with murine VEGFR2 protein, the “cross-reaction / binding to murine VEGFR2” value is listed as “did not cross-react”.

B2: R2PC8: phage-displayed human scFv clone binding VEGFR2; VH CDR1-3 SEQ ID NO: 1-3, VL CDR1/CDR3 SEQ ID NO: 4, 5 (antibody, V domains shown)
VH: QVQLVQSGGGLVKPGGSLRLSCAASGFTFSSYSMSWVRQAPGKGLEWVSSISSSSSYIYYADSVKGRFTISRDNAKNSLYLQMNSLRAEDTAVYYCARSTDAFDIWGQGTMVTVSS
VL: DIVMTQSPSSLSASVGDRVTITCRASQRISNYLNWYQHKSGEDPKLLIYAASSLQSGVPSRFSGSGSGTDFTLTISSLQPEDFATYYCQQYDRYPPTFGQGTKLEIK
In the case of B2, in the data set with VEGFR2-Fc, the “binding of phage clones to VEGFR2-Fc” value is reported as “bind highly”. The “binding of phage clones to c-Met-Fc control protein” value in the data set on Met-Fc is reported as “not”.

B3: R2S8: soluble anti-VEGFR2 scFv protein generated from phage clone R2PC8 (antibody, V domains shown)
VH: QVQLVQSGGGLVKPGGSLRLSCAASGFTFSSYSMSWVRQAPGKGLEWVSSISSSSSYIYYADSVKGRFTISRDNAKNSLYLQMNSLRAEDTAVYYCARSTDAFDIWGQGTMVTVSS
VL: DIVMTQSPSSLSASVGDRVTITCRASQRISNYLNWYQHKSGEDPKLLIYAASSLQSGVPSRFSGSGSGTDFTLTISSLQPEDFATYYCQQYDRYPPTFGQGTKLEIK
Take B3: the “tyrosine phosphorylation of VEGFR2 by VEGF-A” value with VEGFR2 signaling pathway is “inhibited”. For the same molecule, in the data set with VEGFR2, the IC50 was found to be 7.03 nM. Also, in the data set with murine VEGFR2 protein, the “cross-reaction / binding to murine VEGFR2” value was “did not cross-react”.

B4: R2PC29: phage-displayed human scFv clone binding VEGFR2; VH CDR1-3 SEQ ID NO: 16-18, VL CDR1/CDR3 SEQ ID NO: 19, 20 (antibody, V domains shown)
VH: QVQLQQSGAEMKKSGSSVKVSCKASGGNFISKGISWVRQAPGQGLEWMGGIIPLFGTGNYAQKFQGRVTITADESTTTVYLQLTSLTPEDTAMYFCATADVDYSDSLEAFDMWGQGTMVTVSS
VL: DIVMTQSPSSLSASVGDRVTITCRASQSINNYLNWYQQKPGKAPNLLIYGASSLQSGVPSRFRGSGSGTDFTLTISSLQPEDFATYYCQQSYSTPLFGQGTKLEIK
On to B4, for which the “binding of phage clones to VEGFR2-Fc” value in the data set with VEGFR2-Fc is reported as “bind highly”. Also, the “binding of phage clones to c-Met-Fc control protein” value with Met-Fc was “not”.

B5: R2S29: soluble anti-VEGFR2 scFv protein generated from phage clone R2PC29 (antibody, V domains shown)
VH: QVQLQQSGAEMKKSGSSVKVSCKASGGNFISKGISWVRQAPGQGLEWMGGIIPLFGTGNYAQKFQGRVTITADESTTTVYLQLTSLTPEDTAMYFCATADVDYSDSLEAFDMWGQGTMVTVSS
VL: DIVMTQSPSSLSASVGDRVTITCRASQSINNYLNWYQQKPGKAPNLLIYGASSLQSGVPSRFRGSGSGTDFTLTISSLQPEDFATYYCQQSYSTPLFGQGTKLEIK
Regarding B5, in the data set with VEGFR2, the “competitive ability against VEGF-A binding to VEGFR2” value is “comparatively weak competitive ability”.

B6: R2PC45: phage-displayed human scFv clone binding VEGFR2; VH CDR1-3 SEQ ID NO: 21-23, VL CDR1/CDR3 SEQ ID NO: 24, 25 (antibody, V domains shown)
VH: QVNLRESGGGVVQPGRSLRLSCAASGFTFSSYAMHWVRQAPGKGLEWVAVISYDGSNKYYADSVKGRFTISRDNSKNTLYLQMNSLRAEDTAVYYCAREQDYGSSSGDAFDIWGQGTMVTVSS
VL: DIQMTQSPSSLSASVGDRVTITCRASQRISSYLNWYQQKPGKAPKLLIYDASNLQSGVPSRFSGSGSGTDFTLTINGLQPDDFAIYFCHQSYSAPPTFGQGTKVEIK
For B6, in the data set with VEGFR2-Fc, the “binding of phage clones to VEGFR2-Fc” value is reported as “bind highly”. Also, in the data set with Met-Fc, the “binding of phage clones to c-Met-Fc control protein” value is “not”.

B7: R2PC28: phage-displayed human scFv clone binding VEGFR2; VH CDR1-3 SEQ ID NO: 11-13, VL CDR1/CDR3 SEQ ID NO: 14, 15 (antibody, V domains shown)
VH: EVQLVESGGALVQPGGSLRLSCVGSEFTFSHYNLHWVRQAPGKGLEWLAVISDDGRNKYYGDSVKGRFTISRDNSKNTLYLQMNGLRAEDTAVYYCARVPTVWRGGVYDIWGQGTMVTVSS
VL: EIVLTQSPATLSLSPGERATLSCRASQSVGSYLAWYQQRPGQPPRLLIYDASNRATGVAARFSGSGSGTDFTLTIDSLEAEDAATYYCHQSSSLPRTFGQGTKLEIK
Take B7: the “binding of phage clones to VEGFR2-Fc” value in the data set with VEGFR2-Fc is reported as “bind highly”. Also, the “binding of phage clones to c-Met-Fc control protein” value with Met-Fc is reported as “not”.

B8: R2S28: soluble anti-VEGFR2 scFv protein generated from phage clone R2PC28 (antibody, V domains shown)
VH: EVQLVESGGALVQPGGSLRLSCVGSEFTFSHYNLHWVRQAPGKGLEWLAVISDDGRNKYYGDSVKGRFTISRDNSKNTLYLQMNGLRAEDTAVYYCARVPTVWRGGVYDIWGQGTMVTVSS
VL: EIVLTQSPATLSLSPGERATLSCRASQSVGSYLAWYQQRPGQPPRLLIYDASNRATGVAARFSGSGSGTDFTLTIDSLEAEDAATYYCHQSSSLPRTFGQGTKLEIK
With B8, the “competitive ability against VEGF-A binding to VEGFR2” value in the data set with VEGFR2 is reported as “comparatively weak competitive ability”.
